Test results from patent US20250059275A1 (SHANGHAI NIGENE BIOLOGICAL SCIENCE AND TECHNOLOGY, published 2025).

T1: human TIGIT expressed on CHO-K1 cells (CHO-huTIGIT) (human, UniProt Q495A1 22-244)
T1 construct: whole, on cells; also called CHO-huTIGIT-eGFP; human TIGIT-expressing CHO cells
T1 sequence (looked up): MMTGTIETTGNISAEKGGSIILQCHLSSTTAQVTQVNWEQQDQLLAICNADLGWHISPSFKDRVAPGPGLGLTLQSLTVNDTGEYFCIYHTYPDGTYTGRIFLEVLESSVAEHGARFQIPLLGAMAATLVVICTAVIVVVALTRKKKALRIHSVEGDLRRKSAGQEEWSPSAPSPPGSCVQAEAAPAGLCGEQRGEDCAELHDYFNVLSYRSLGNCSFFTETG

T2: human TIGIT-HIS (Biointron, BI120) (human, UniProt Q495A1 22-141, limits assumed)
T2 construct: also called recombinant huTIGIT protein; recombinant human TIGIT protein; not shown: His tag
T2 sequence (looked up): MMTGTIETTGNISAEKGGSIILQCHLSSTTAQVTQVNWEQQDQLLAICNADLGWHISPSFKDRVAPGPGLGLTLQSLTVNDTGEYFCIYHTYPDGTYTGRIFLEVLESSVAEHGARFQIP


Legend:
[1] = target: T1, human TIGIT expressed on CHO-K1 cells …; experiment: flow cytometry on CHO-huTIGIT cells, anti-human IgG Fc Alexa Fluor 594
Protocol: (§1) CHO-huTIGIT cells or CHO-mkTIGIT cells were implanted in 96 well plates. The antibodies of Example 2 were diluted to different concentrations respectively and added to 96 well plates covered with cells (100 μL/well), incubated at 4° C. (on ice) for 1 hour.
(§2) Washed the cells by adding 200 μL/well washing buffer, and centrifuged at 1600 rpm (˜260×g), 4° C. for 3 minutes, and discarded the supernatant, repeated twice. Add 30 μL washing buffer containing anti-human IgG secondary antibody (Jackson ImmunoResearch, #109-585-190, Alexa Fluor® 594 AffiniPure Goat Anti-Human IgG, Fcγ fragment specific) to each well, cultured cells at 4° C. (on ice) for 1 hour. Washing twice, transferred the cells to a flat bottom 96 well plate, and analyze the cells with CytoFLEX S. The antibody concentration was plotted with the logarithm of 10 as the abscissa and the median fluorescence value of two channels as the ordinate. The EC₅₀ (CHO-huTIGIT and CHO-mkTIGIT) and the peak value of the curve were compared.

[2] = target: T3, cynomolgus monkey TIGIT expressed on CHO-K1 cells (CHO-mkTIGIT) (cynomolgus monkey, UniProt A0A7N9I9V4 89-312); experiment: flow cytometry on CHO-mkTIGIT cells, anti-human IgG Fc Alexa Fluor 594
T3 construct: whole, on cells
T3 sequence (A0A7N9I9V4 entry or part of it): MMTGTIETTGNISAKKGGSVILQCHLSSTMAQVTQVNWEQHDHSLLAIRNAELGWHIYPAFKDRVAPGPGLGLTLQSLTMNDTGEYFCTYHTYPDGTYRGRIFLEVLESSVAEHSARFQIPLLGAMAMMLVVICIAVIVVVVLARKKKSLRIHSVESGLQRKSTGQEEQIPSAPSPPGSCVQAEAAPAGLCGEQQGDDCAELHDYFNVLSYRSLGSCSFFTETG
Protocol: as §1, §2

[3] = target: T1, human TIGIT expressed on CHO-K1 cells …; experiment: flow cytometry blocking assay on CHO-huTIGIT-eGFP cells; blocked ligand: biotinylated human CD155-Fc
Protocol: (§3) CHO-huTIGIT-eGFP cells were implanted in V-bottom 96 well plates. The antibodies of Example 2 and reference antibodies were diluted to different concentrations respectively and added (100 μL/well) to the 96 well plate covered with cells (100%)), incubated at 4° C. for 1 hour.
(§4) Washed the cells by adding 200 μL/well washing buffer, and centrifuged at 1600 rpm (˜260×g), 4° C. for 3 minutes, and discarded the supernatant, repeated twice. […] (on ice) for 1 hour. Add 30 μL washing buffer contains streptavidin-594 (f.c.=10 μg/ml) into the well, then the cells were incubated at 4° C. for 30 minutes. Wash once and transfer the cells to a flat bottom 96 well plate, and analyze the cells with CytoFLEX S. Take the logarithm of antibody concentration (μg/mL) with the base of 10 as the abscissa and the intermediate fluorescence value corresponding to each antibody concentration as the ordinate.

[4] = target: T1, human TIGIT expressed on CHO-K1 cells …; experiment: flow cytometry competition on CHO-huTIGIT-eGFP cells; competitor biotinylated human CD155-Fc
Protocol: as §3, §4

[5] = target: T3, cynomolgus monkey TIGIT expressed on …; experiment: flow cytometry on CHO-mkTIGIT cells, anti-human IgG secondary antibody
Protocol: as §1, §2

[6] = target: T2, human TIGIT-HIS (Biointron, BI120); experiment: Octet BLI tandem epitope competition, TIGIT-HIS loaded on the sensor, first antibody step

Binder | EC50 [1] [µg/mL] | EC50 [2] [µg/mL] | IC50 (read off the curve) [3] [µg/mL] | IC50 [4] [µg/mL] | EC50 (read off the curve) [5] [µg/mL] | binding result [6]
JHH4B030a (antibody, V domains shown) VH: QVQLQQSGPGLVKPSQTLSLTCAISGDSVSSNSAAWNWIRQSPSRGLEWLGRTYYRSKWYNDYAVSVKSRITINPDTSKNQFSLQLNSVTPEDTAVYYCARERGTYYDILTGDFDYWGQGTLVTVSS VL: not shown | 0.0043 | 0.857 | ~0.8 | 0.777 |  | 
JHH4A042-H3 (antibody, V domains shown) VH: QVQLQQSGPGLVKPSQTLSLTCAISGDSVSSNSAAWNWIRQSPSRGLEWLGRTYFRSKWYNDYAVSVKSRITINPDTSKNQFSLQLNSMTPEDTAVYYCARERALYDILAGSFDYWGQGTLVTVSS VL: not shown | 0.00463 | 0.0792 | ~0.8 | 0.8 | ~1 | 
JHH4A042-H7 (antibody, V domains shown) VH: QVQLQQSGPGLVKPSQTLSLTCAISGDSVSSNSAVWNWIRQSPSRGLEWLGRTYYRSKWYNDYAVSVKSRITINPDTSKNQFSLQLNSMTPEDTAVYYCARERALYDILAGSFDYWGQGTLVTVSS VL: not shown | 0.00602 | 0.605 | ~1 | 0.973 |  | 
JHH4D035a (antibody, V domains shown, Fully human antibody from TC-mAb mice) VH: EVQLVESGGGLVQPGRSLRLSCAASGFTFDDFAMHWVRQAPGKGLEWVSGISWNGIGIGYADSVKGRFTISRDNAKNSLYLQMNSLRAEDTALYFCAKDKGLRRYYGMDVWGQGITVIVSS VL: not shown |  |  |  |  |  | binds
JHH4B056a (antibody, V domains shown) VH: EVQLVESGGGLVQPGRSLRLSCAASGFTFDDYAMHWVRQAPGKGLEWVSGISWNGIGIGYADSVKGRFTISRDNAKNSLYLQMNSLRAEDTALYYCAKDGGDYHYYGMDVWGQGTTVTVSS VL: not shown | 0.00459 | 0.00958 | ~1 | 1 | ~0.009 | 
JHH4E061a (antibody, V domains shown, Fully human antibody from TC-mAb mice) VH: EVQLVESGGGLIQPGRSLTLSCVASGFTFDDYAMHWVRQAPGKGLEWVSGISWNGIGIGYADSVKGRFTISRDNAKNSLILQMNSLRIEDTALYYCAKDKGLRRYYGMDVWGQGTTVTVSS VL: EIVMTQSPLSLPVTPGEPASISCRSSRSLLHSNGYNYLDWYLQKPGQSPQLLIYLGSNRASGVPDRFSGSGSGTDFTLKINRVEAEDVGVYYCMQALQTPPTFGGGTKVEIK |  |  |  |  |  | binds
JHH4A063 (antibody, V domains shown, also called 4A063-hIgG1) VH: EVQLVESGGGLVQPGRSLRLSCTASGFNFDDYGMHWVRQAPGKGLEWVSGISWNSISIGSADSVKGRFTISRDNAKNSLYLQMNSLRPEDTALYYCAKDGGDHYYYGMDVWGQGTTVTVSS VL: DIMMTQSPLSLPVTPGEPASISCRSSQSLLHSNGYKYLNWYLQKPGQSPLLLIYLGSNRASGVPDRFSGSGSGTDFTLKISRVEAEDVGVYYCMQALQTPLTFGGGTKVEIK | 0.00349 | 0.00425 | ~0.5 | 0.559 | ~0.004 | 
JHH4B037a (antibody, V domains shown) VH: EVQLVESGGGLVQPGRSLRLSCEASGFSFDDYAMHWVRQAPGKGLEWVSGISWNSVTIGYADSVKGRFTISRDNAKNSLYLEMNSLRTEDTALYYCAKELPTYRYYALDGWGQGTAVTVSS VL: not shown | 0.00388 | 0.00532 | ~0.8 | 0.79 | ~0.005 | 
JHH1B2-8C (antibody, V domains shown) VH: QVQLQQSGPGLVKPSQTLSLTCAISGDSVSSNSAAWNWIRQSPSRGLEWLGRTYYRSKWYNDYAVSVKSRITINPDTSKNQFSLQLNSVTPEDTAVYYCAREGVLRYFDWLSGAFDIWGQGTMVTVSS VL: not shown | 0.00549 |  | ~1 | 1.18 |  | 
JHH4A057 (antibody, V domains shown) VH: QVQLVQSGSELKKPGASVKVSCKASGYTLTSHALNWVRQAPGQGLEWMGWINTNTGNPTYVQGFTGRFVFSLDTSVSTAYLQISSLKAEDTAVYYCARGYSSPPRMDVWGQGTTVTVSS VL: EIVLTQSPGTLFLSPGERATLSCRASQSVSRNYLVWYQQKPGQAPRLLIYGASTRATGIPDRFSGSGSGTDFTLTIRRLEPEDFALYYCQQYGSSPFTFGQGTKLEIN | 0.00412 | 0.00887 | ~0.9 | 0.899 | ~0.009 | 
